Residue numbers refer to the chain shown, from its start. In names and notes the source's numbering stands.
B1: P140R: MGMT polypeptide with mutation P140R (protein)
chain: MDKDCEMKRTTLDSPLGKLELSGCEQGLHEIKLLGKGTSAADAVEVPAPAAVLGGPEPLMQCTAWLNAYFHQPEAIEEFPVPALHHPVFQQESFTRQVLWKLLKVVKFGEVISYQQLAALAGNPKAARAVGGAMRGNPVRILIPCHRVVCSSGAVGNYSGGLAVKEWLLAHEGHRLGKPGLGGSSGLAGAWLKGAGATSGSPPAGRN
B2: S159W: MGMT polypeptide with mutation S159W (protein)
chain: B1 chain with R140P, S159W
B3: G156V: MGMT polypeptide with mutation G156V (protein)
chain: B1 chain with R140P, G156V
B4: S159I: MGMT polypeptide with mutation S159I (protein)
chain: B1 chain with R140P, S159I
B5: S159F: MGMT polypeptide with mutation S159F (protein)
chain: B1 chain with R140P, S159F
B6: Y158W: MGMT polypeptide with mutation Y158W (protein)
chain: B1 chain with R140P, Y158W
B7: Y158M: MGMT polypeptide with mutation Y158M (protein)
chain: B1 chain with R140P, Y158M
B8: Y158F: MGMT polypeptide with mutation Y158F (protein)
chain: B1 chain with R140P, Y158F
B9: G156P: MGMT polypeptide with mutation G156P (protein)
chain: B1 chain with R140P, G156P
B10: Y158H: MGMT polypeptide with mutation Y158H (protein)
chain: B1 chain with R140P, Y158H
B11: G156I: MGMT polypeptide with mutation G156I (protein)
chain: B1 chain with R140P, G156I
B12: G156A: MGMT polypeptide with mutation G156A (protein)
chain: B1 chain with R140P, G156A

System: U251 human glioblastoma cell line
Assay: in vitro FM-HCR assay of MGMT activity (mPlum O^6MeG reporter plasmid)
Type: cell-based
Settings: for Reporter expression (%) mean, O^6BG: 100 μM O^6BG; for Reporter expression (%) mean, O^6BG / Reporter expression (%) mean, DMSO: U251 cells, flow cytometry 24 h after transfection, damaged/undamaged reporter, inversely related to MGMT activity; for Reporter expression (%) mean, DMSO: 0.1% DMSO; for MGMT activity (a.u.) DMSO / MGMT activity (% of WT) DMSO: DMSO condition; for MGMT activity (a.u.) DMSO / MGMT activity (a.u.) O^6BG: determined from percent reporter expression; for MGMT activity (% of WT) DMSO / MGMT activity (% of WT) O^6BG: relative to wild-type MGMT in same condition; for Relative MGMT activity (%): MGMT activity (a.u.) in O^6BG divided by DMSO x 100, higher values indicate resistance; for MGMT activity (a.u.) O^6BG / MGMT activity (% of WT) O^6BG: O^6BG condition; for Ratio percent reporter expression (O^6BG/DMSO): lower values indicate resistance to O^6BG; for O^6BG resistance relative to WT (%): percentage difference in relative MGMT activity between variant and wild-type MGMT
From the text: The present Example includes, in part, an in vitro fluorescence multiplex host cell reactivation (FM-HCR) assay in which a reporter plasmid with O^6MeG-containing oligonucleotides is used. The oligonucleotides induce transcription errors that lead to expression of fluorescent mPlum protein. Functional MGMT will repair the O^6MeG sites and reduce mPlum expression. This represents a rapid and validated assay system to assess intracellular activity of MGMT. Further description of certain such assays is found in Nagel (2014 PNAS USA 111 (18): E1823-32, which is incorporated herein by reference.
The present Example uses an in vitro FM-HCR assay in which a reporter plasmid with 0° MeG-containing oligonucleotides is used to assay MGMT activity in cells. The O^6MeG-containing oligonucleotides induce transcription errors that lead to expression of fluorescent mPlum protein. Functional MGMT will repair the O'MeG sites and reduce mPlum expression. This represents a rapid and validated assay system to assess intracellular activity of MGMT. Further description of certain such assays is found in Nagel et al., 2014 PNAS USA 111 (18): E1823-32 and Piett et al., 2021 Nat. Protoc. 16 (9): 4265-4298, each of which is incorporated herein by reference.
The in vitro FM-HCR assay was performed using the U251 human glioblastoma cell line. The cells were cultured in DMEM with 10% FBS and passaged every three days.
To express MGMT variants in the cells, plasmids encoding each MGMT variant were designed and generated by either de novo synthesis or cloning into the pTwist EF1 Alpha Puro vector at the HindII-BamHI multiple cloning site. The pTwist EF1 Alpha Puro plasmid vector drives expression of the MGMT transcript from a human EF1-alpha promoter including intron 1 and an SV40 polyadenylation signal. Plasmids encoding the MGMT variants were purified using standard molecular biology techniques from E. coli with low endotoxins. Plasmids encoding wild-type MGMT or O^6BG-resistant MGMT^P140K were also designed and generated for use as controls.
To perform the in vitro FM-HCR assay, U251 cells were seeded in 12-well plates at a density of 50,000 cells per well in 1 mL culture media. The following day, the media was changed to 1 mL of culture media containing O^6BG (100 μM O^6BG and 0.1% DMSO final) or 0.1% DMSO; and the cells were transfected with 1,000 ng of a plasmid cocktail using Lipofectamine 3000 (ThermoFisher Scientific) at 1.8 μL Lipofectamine 3000 Reagent and 2 μL P3000 reagent in Opti-MEM medium (ThermoFisher Scientific). […] For the “undamaged” condition, the plasmid cocktail replaced the mPlum O^6MeG reporter plasmid with 100 ng of a plasmid expressing mPlum. The plasmid encoding BFP was used as an internal transfection control. For transfections where no MGMT encoding plasmid is used (no pMGMT), 250 ng of additional carrier plasmid was used to maintain a total DNA amount of 1,000 ng in each transfection. Four hours after transfection, the transfection medium was changed.
All transfected cells were analyzed by flow cytometry at 24-hours after transfection. Data was analyzed as previously described in Nagel et al., 2014 PNAS USA 111 (18): E1823-32 and Piett et al., 2021 Nat. Protoc. 16 (9): 4265-4298. For each condition, normalized reporter expression was determined by taking the product of the mPlum-positive cell count and the mean mPlum fluorescence intensity in mPlum-positive cells and dividing it by the product of the BFP-positive cell count and the mean BFP fluorescence intensity in BFP-positive cells. Next, for each MGMT variant, the percent reporter expression was determined by taking the normalized reporter expression in the “damaged” condition and dividing it by the normalized reporter expression in the “undamaged” condition, and then multiplying by 100 to obtain a percent value. […]

| Molecule | Reporter expression (%) mean, O^6BG [%] | Reporter expression (%) mean, DMSO [%] | MGMT activity (a.u.) DMSO [a.u.] | MGMT activity (% of WT) DMSO | Relative MGMT activity (%) | MGMT activity (a.u.) O^6BG [a.u.] | MGMT activity (% of WT) O^6BG | Ratio percent reporter expression (O^6BG/DMSO) | O^6BG resistance relative to WT (%) |
| --- | --- | --- | --- | --- | --- | --- | --- | --- | --- |
| B1 | 38.3 | 25.3 | 3.95 | 73.0 % of WT | 66.1 | 2.61 | 182.6 % of WT | 1.51 | 150.1 |
| B2 | 108.0 | 31.3 | 3.19 | 59.0 % of WT | 29.0 | 0.93 | 64.8 % of WT | 3.45 | 9.8 |
| B3 | 55.0 | 36.8 | 2.72 | 50.3 % of WT | 66.8 | 1.82 | 127.3 % of WT | 1.50 | 152.8 |
| B4 | 40.3 | 18.0 | 5.56 | 102.8 % of WT | 44.6 | 2.48 | 173.6 % of WT | 2.24 | 68.9 |
| B5 | 102.7 | 23.0 | 4.35 | 80.4 % of WT | 22.4 | 0.97 | 68.2 % of WT | 4.46 | −15.2 |
| B6 | 86.7 | 26.0 | 3.85 | 71.2 % of WT | 30.0 | 1.15 | 80.8 % of WT | 3.33 | 13.5 |
| B7 | 60.0 | 47.7 | 2.10 | 38.8 % of WT | 79.4 | 1.67 | 116.7 % of WT | 1.26 | 200.6 |
| B8 | 61.3 | 12.3 | 8.11 | 150.0 % of WT | 20.1 | 1.63 | 114.1 % of WT | 4.97 | −23.9 |
| B9 | 47.3 | 41.0 | 2.44 | 45.1 % of WT | 86.6 | 2.11 | 147.9 % of WT | 1.15 | 227.8 |
| B10 | 30.3 | 23.3 | 4.29 | 79.3 % of WT | 76.9 | 3.30 | 230.8 % of WT | 1.30 | 191.1 |
| B11 | 54.0 | 42.0 | 2.38 | 44.0 % of WT | 77.8 | 1.85 | 129.6 % of WT | 1.29 | 194.3 |
| B12 | 79.0 | 32.3 | 3.10 | 57.4 % of WT | 40.8 | 1.27 | 88.6 % of WT | 2.45 | 54.5 |
